IntAct's records for PubMed 16306228

B1: Serine/threonine-protein kinase SIK1 (Homo sapiens), P57059 (parent)
chain: MVIMSEFSADPAGQGQGQQKPLRVGFYDIERTLGKGNFAVVKLARHRVTKTQVAIKIIDKTRLDSSNLEKIYREVQLMKLLNHPHIIKLYQVMETKDMLYIVTEFAKNGEMFDYLTSNGHLSENEARKKFWQILSAVEYCHDHHIVHRDLKTENLLLDGNMDIKLADFGFGNFYKSGEPLSTWCGSPPYAAPEVFEGKEYEGPQLDIWSLGVVLYVLVCGSLPFDGPNLPTLRQRVLEGRFRIPFFMSQDCESLIRRMLVVDPARRITIAQIRQHRWMRAEPCLPGPACPAFSAHSYTSNLGDYDEQALGIMQTLGVDRQRTVESLQNSSYNHFAAIYYLLLERLKEYRNAQCARPGPARQPRPRSSDLSGLEVPQEGLSTDPFRPALLCPQPQTLVQSVLQAEMDCELQSSLQWPLFFPVDASCSGVFRPRPVSPSSLLDTAISEEARQGPGLEEEQDTQESLPSSTGRRHTLAEVSTRLSPLTAPCIVVSPSTTASPAEGTSSDSCLTFSASKSPAGLSGTPATQGLLGACSPVRLASPFLGSQSATPVLQAQGGLGGAVLLPVSFQEGRRASDTSLTQGLKAFRQQLRKTTRTKGFLGLNKIKGLARQVCQAPASRASRGGLSPFHAPAQSPGLHGGAAGSREGWSLLEEVLEQQRLLQLQHHPAAAPGCSQAPQPAPAPFVIAPCDGPGAAPLPSTLLTSGLPLLPPPLLQTGASPVASAAQLLDTHLHIGTGPTALPAVPPPRLARLAPGCEPLGLLQGDCEMEDLMPCSLGTFVLVQ
B2: Serine/threonine-protein kinase SIK3 (Homo sapiens), Q9Y2K2 (parent)
chain: MAAAAASGAGGAAGAGTGGAGPAGRLLPPPAPGSPAAPAAVSPAAGQPRPPAPASRGPMPARIGYYEIDRTIGKGNFAVVKRATHLVTKAKVAIKIIDKTQLDEENLKKIFREVQIMKMLCHPHIIRLYQVMETERMIYLVTEYASGGEIFDHLVAHGRMAEKEARRKFKQIVTAVYFCHCRNIVHRDLKAENLLLDANLNIKIADFGFSNLFTPGQLLKTWCGSPPYAAPELFEGKEYDGPKVDIWSLGVVLYVLVCGALPFDGSTLQNLRARVLSGKFRIPFFMSTECEHLIRHMLVLDPNKRLSMEQICKHKWMKLGDADPNFDRLIAECQQLKEERQVDPLNEDVLLAMEDMGLDKEQTLQSLRSDAYDHYSAIYSLLCDRHKRHKTLRLGALPSMPRALAFQAPVNIQAEQAGTAMNISVPQVQLINPENQIVEPDGTLNLDSDEGEEPSPEALVRYLSMRRHTVGVADPRTEVMEDLQKLLPGFPGVNPQAPFLQVAPNVNFMHNLLPMQNLQPTGQLEYKEQSLLQPPTLQLLNGMGPLGRRASDGGANIQLHAQQLLKRPRGPSPLVTMTPAVPAVTPVDEESSDGEPDQEAVQSSTYKDSNTLHLPTERFSPVRRFSDGAASIQAFKAHLEKMGNNSSIKQLQQECEQLQKMYGGQIDERTLEKTQQQHMLYQQEQHHQILQQQIQDSICPPQPSPPLQAACENQPALLTHQLQRLRIQPSSPPPNHPNNHLFRQPSNSPPPMSSAMIQPHGAASSSQFQGLPSRSAIFQQQPENCSSPPNVALTCLGMQQPAQSQQVTIQVQEPVDMLSNMPGTAAGSSGRGISISPSAGQMQMQHRTNLMATLSYGHRPLSKQLSADSAEAHSLNVNRFSPANYDQAHLHPHLFSDQSRGSPSSYSPSTGVGFSPTQALKVPPLDQFPTFPPSAHQQPPHYTTSALQQALLSPTPPDYTRHQQVPHILQGLLSPRHSLTGHSDIRLPPTEFAQLIKRQQQQRQQQQQQQQQQEYQELFRHMNQGDAGSLAPSLGGQSMTERQALSYQNADSYHHHTSPQHLLQIRAQECVSQASSPTPPHGYAHQPALMHSESMEEDCSCEGAKDGFQDSKSSSTLTKGCHDSPLLLSTGGPGDPESLLGTVSHAQELGIHPYGHQPTAAFSKNKVPSREPVIGNCMDRSSPGQAVELPDHNGLGYPARPSVHEHHRPRALQRHHTIQNSDDAYVQLDNLPGMSLVAGKALSSARMSDAVLSQSSLMGSQQFQDGENEECGASLGGHEHPDLSDGSQHLNSSCYPSTCITDILLSYKHPEVSFSMEQAGV

Variants of: B1
Conditions: with 1433z_human YWHAZ

Variant	effect of a mutation on the interaction
T182A	decreasing interaction

Variants of: B2
Conditions: with 1433z_human YWHAZ

Variant	effect of a mutation on the interaction
T221A	decreasing interaction
